Laboratory results reported in the Immune Epitope Database (IEDB).
pKd: −log10 of the molar value.

Key:
[1] = molecular target: HLA-A*01:01; assay: IEDB peptide-MHC binding, purified MHC/direct/fluorescence; filed as Kd, often an IC50 or EC50 that approximates it; ≥ and ≤ were set here for values at or beyond the usual limits of such assays
[2] = molecular target: HLA-A*80:01; assay: as above
[3] = molecular target: HLA-A*23:01; assay: as above
[4] = molecular target: HLA-A*24:03; assay: as above
[5] = molecular target: HLA-B*15:01; assay: IEDB peptide-MHC binding, purified MHC/competitive/fluorescence; filed as Kd, often an IC50 or EC50 that approximates it; ≥ and ≤ were set here for values at or beyond the usual limits of such assays; conditions: source organism: Cryptosporidium parvum Iowa II
[6] = molecular target: HLA-A*03:01; assay: as above; conditions: source organism: Cryptosporidium parvum Iowa II
[7] = molecular target: HLA-A*02:03; assay: as above
[8] = molecular target: HLA-A*02:16; assay: as above
[9] = molecular target: HLA-A*29:02; assay: as above; conditions: source organism: Cryptosporidium parvum Iowa II
[10] = molecular target: HLA-B*51:01; assay: as above
[11] = molecular target: HLA-B*18:01; assay: as above
[12] = molecular target: HLA-A*26:01; assay: as above
[13] = molecular target: HLA-A*24:03; assay: as above
[14] = molecular target: HLA-A*68:02; assay: as above
[15] = molecular target: HLA-A*02:11; assay: as above
[16] = molecular target: HLA-B*57:01; assay: as above
[17] = molecular target: HLA-B*46:01; assay: as above
[18] = molecular target: HLA-B*39:01; assay: as above
[19] = molecular target: HLA-A*02:01; assay: as above
[20] = molecular target: HLA-A*02:19; assay: as above
[21] = molecular target: HLA-A*02:12; assay: as above
[22] = molecular target: HLA-B*15:17; assay: as above
[23] = molecular target: HLA-B*27:03; assay: as above
[24] = molecular target: HLA-A*69:01; assay: as above
[25] = molecular target: HLA-A*03:01; assay: IEDB peptide-MHC binding, purified MHC/direct/fluorescence; filed as Kd, often an IC50 or EC50 that approximates it; ≥ and ≤ were set here for values at or beyond the usual limits of such assays; conditions: source organism: Bacillus cereus 03BB108
[26] = molecular target: HLA-A*02:03; assay: as above
[27] = molecular target: HLA-A*02:16; assay: as above
[28] = molecular target: HLA-A*68:02; assay: as above
[29] = molecular target: HLA-A*02:11; assay: as above
[30] = molecular target: HLA-A*02:19; assay: as above
[31] = molecular target: HLA-A*02:12; assay: as above
[32] = molecular target: HLA-A*11:01; assay: as above
[33] = molecular target: HLA-A*29:02; assay: as above
[34] = molecular target: HLA-B*40:01; assay: as above; conditions: source organism: West Nile virus
[35] = molecular target: HLA-B*18:01; assay: as above; conditions: source organism: West Nile virus
[36] = molecular target: HLA-B*57:01; assay: as above; conditions: source organism: West Nile virus
[37] = molecular target: HLA-B*46:01; assay: as above; conditions: source organism: West Nile virus
[38] = molecular target: HLA-A*31:01; assay: as above; conditions: source organism: West Nile virus
[39] = molecular target: HLA-B*44:02; assay: as above; conditions: source organism: West Nile virus
[40] = molecular target: HLA-B*48:01; assay: as above; conditions: source organism: West Nile virus
[41] = molecular target: HLA-B*27:05; assay: as above; conditions: source organism: West Nile virus
[42] = molecular target: HLA-A*69:01; assay: as above; conditions: source organism: West Nile virus
[43] = molecular target: HLA-B*58:01; assay: as above; conditions: source organism: West Nile virus
[44] = molecular target: HLA-A*31:01; assay: IEDB peptide-MHC binding, purified MHC/competitive/fluorescence; filed as Kd, often an IC50 or EC50 that approximates it; ≥ and ≤ were set here for values at or beyond the usual limits of such assays; conditions: source organism: Bacillus anthracis str. A0488
[45] = source organism: Bacillus anthracis
[46] = source organism: Orthohantavirus andesense
[47] = source organism: Burkholderia mallei ATCC 23344
[48] = source organism: Cryptosporidium parvum Iowa II
[49] = source organism: Bacillus anthracis str. A0488
[50] = source organism: Bacillus cereus 03BB108
[51] = source organism: Bacillus anthracis str. A2012
[52] = source organism: Bacillus anthracis str. Sterne
[53] = source organism: West Nile virus

## VLRACWNEK
[1]; [45]
  pKd: ≤ 4.70
[2]; [45]
  pKd: ≤ 4.70

## HSDDALFIY
[1]; [46]
  pKd: ≤ 4.70
[2]; [46]
  pKd: 4.80

## CYRGVRHRK
[3]; [47]
  pKd: 6.39
[4]; [47]
  pKd: 5.86

## KLYLRPWWH
[5]
  pKd: ≤ 4.70
[6]
  pKd: 8.36
[7]; [48]
  pKd: ≤ 4.70
[8]; [48]
  pKd: ≤ 4.70
[9]
  pKd: 6.17
[10]; [48]
  pKd: ≤ 4.70
[11]; [48]
  pKd: ≤ 4.70
[12]; [48]
  pKd: ≤ 4.70
[13]; [48]
  pKd: ≤ 4.70
[14]; [48]
  pKd: ≤ 4.70
[15]; [48]
  pKd: ≤ 4.70
[16]; [48]
  pKd: ≤ 4.70
[17]; [48]
  pKd: ≤ 4.70
[18]; [48]
  pKd: ≤ 4.70
[19]; [48]
  pKd: ≤ 4.70
[20]; [48]
  pKd: ≤ 4.70
[21]; [48]
  pKd: ≤ 4.70
[22]; [48]
  pKd: ≤ 4.70
[23]; [48]
  pKd: ≤ 4.70
[24]; [48]
  pKd: ≤ 4.70

## SYMLQGLRK
[10]; [49]
  pKd: ≤ 4.70
[11]; [49]
  pKd: ≤ 4.70
[12]; [49]
  pKd: ≤ 4.70
[16]; [49]
  pKd: ≤ 4.70
[17]; [49]
  pKd: ≤ 4.70
[18]; [49]
  pKd: ≤ 4.70
[19]; [49]
  pKd: ≤ 4.70
[22]; [49]
  pKd: ≤ 4.70
[23]; [49]
  pKd: ≤ 4.70
[24]; [49]
  pKd: ≤ 4.70
[25]
  pKd: ≤ 4.70
[26]; [50]
  pKd: ≤ 4.70
[27]; [50]
  pKd: ≤ 4.70
[3]; [50]
  pKd: ≤ 4.70
[4]; [50]
  pKd: ≤ 4.70
[28]; [50]
  pKd: ≤ 4.70
[29]; [50]
  pKd: ≤ 4.70
[30]; [50]
  pKd: ≤ 4.70
[31]; [50]
  pKd: ≤ 4.70
[32]; [50]
  pKd: 6.64

## KKNHWFILK
[10]; [51]
  pKd: ≤ 4.70
[11]; [51]
  pKd: ≤ 4.70
[12]; [51]
  pKd: ≤ 4.70
[16]; [51]
  pKd: ≤ 4.70
[17]; [51]
  pKd: ≤ 4.70
[18]; [51]
  pKd: ≤ 4.70
[19]; [51]
  pKd: ≤ 4.70
[22]; [51]
  pKd: ≤ 4.70
[24]; [51]
  pKd: ≤ 4.70
[26]; [52]
  pKd: ≤ 4.70
[27]; [52]
  pKd: ≤ 4.70
[33]; [52]
  pKd: ≤ 4.70
[3]; [52]
  pKd: ≤ 4.70
[4]; [52]
  pKd: ≤ 4.70
[28]; [52]
  pKd: ≤ 4.70
[29]; [52]
  pKd: ≤ 4.70
[30]; [52]
  pKd: ≤ 4.70
[31]; [52]
  pKd: ≤ 4.70
[32]; [52]
  pKd: 6.60

## MLRKKQITV
[33]; [53]
  pKd: ≤ 4.70
[34]
  pKd: ≤ 4.70
[35]
  pKd: ≤ 4.70
[1]; [53]
  pKd: ≤ 4.70
[36]
  pKd: ≤ 4.70
[37]
  pKd: ≤ 4.70
[38]
  pKd: ≤ 4.70
[39]
  pKd: ≤ 4.70
[40]
  pKd: ≤ 4.70
[41]
  pKd: ≤ 4.70
[42]
  pKd: ≤ 4.70
[2]; [53]
  pKd: ≤ 4.70
[43]
  pKd: ≤ 4.70

## SVHYKFVTK
[1]; [45]
  pKd: ≤ 4.70
[2]; [45]
  pKd: ≤ 4.70

## IQKGMFVVK
[7]; [49]
  pKd: ≤ 4.70
[8]; [49]
  pKd: ≤ 4.70
[10]; [49]
  pKd: ≤ 4.70
[11]; [49]
  pKd: ≤ 4.70
[12]; [49]
  pKd: ≤ 4.70
[13]; [49]
  pKd: ≤ 4.70
[14]; [49]
  pKd: ≤ 4.70
[15]; [49]
  pKd: ≤ 4.70
[16]; [49]
  pKd: ≤ 4.70
[17]; [49]
  pKd: ≤ 4.70
[44]
  pKd: 7.80
[18]; [49]
  pKd: ≤ 4.70
[19]; [49]
  pKd: ≤ 4.70
[20]; [49]
  pKd: ≤ 4.70
[21]; [49]
  pKd: ≤ 4.70
[23]; [49]
  pKd: ≤ 4.70
[24]; [49]
  pKd: ≤ 4.70
